Each block holds one binder with its values, some of them ahead of it.
Key:
[1] = biological target: T1, human FAP recombinant protein (human, UniProt Q12884 26-760); experiment: bio-layer interferometry (Octet RED96), biotinylated human FAP on streptavidin sensor, kinetic titration, 25 °C
T1 construct: The protein was biotinylated with sulfo-NHS-SS-biotin for bio-layer interferometry; also called extracellular domain of human FAP with N-terminal His6-tag
T1 sequence: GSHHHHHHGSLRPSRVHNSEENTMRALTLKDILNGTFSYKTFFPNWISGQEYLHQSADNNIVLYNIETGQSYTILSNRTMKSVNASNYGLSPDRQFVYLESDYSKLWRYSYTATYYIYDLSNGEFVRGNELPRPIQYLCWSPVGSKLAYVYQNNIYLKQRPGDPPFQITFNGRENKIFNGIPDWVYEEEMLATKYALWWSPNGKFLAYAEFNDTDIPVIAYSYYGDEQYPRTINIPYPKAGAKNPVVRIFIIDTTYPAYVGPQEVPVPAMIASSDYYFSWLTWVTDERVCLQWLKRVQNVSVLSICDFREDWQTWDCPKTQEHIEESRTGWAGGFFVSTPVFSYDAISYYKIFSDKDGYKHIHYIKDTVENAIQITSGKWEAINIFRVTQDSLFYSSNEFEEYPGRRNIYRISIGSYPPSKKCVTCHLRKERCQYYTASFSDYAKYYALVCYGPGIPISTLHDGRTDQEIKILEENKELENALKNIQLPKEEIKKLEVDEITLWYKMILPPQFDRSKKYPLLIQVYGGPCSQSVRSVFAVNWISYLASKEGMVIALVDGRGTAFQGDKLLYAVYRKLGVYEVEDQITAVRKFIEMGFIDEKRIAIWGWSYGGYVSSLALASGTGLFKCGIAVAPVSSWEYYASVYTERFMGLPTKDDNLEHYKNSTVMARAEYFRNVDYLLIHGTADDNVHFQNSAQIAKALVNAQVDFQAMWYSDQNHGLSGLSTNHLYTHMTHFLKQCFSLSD
Protocol: (§1) The kinetic parameters of antigen binding by purified VHHs were determined via bio-layer interferometry with an Octet RED96 instrument (ForteBio). The assay was performed at 25° C. with shaking at 1000 rpm. Streptavidin coated SA sensors were equilibrated in assay buffer (HBS supplemented with 0.5% BSA, 0.1% Tween), before loading for 5 min with the biotinylated FAP recombinant protein at a concentration of 5 μg/ml. His₆-tagged VHHs were analyzed in a threefold serial dilution from 30 nM to 0.4 nM in assay buffer (except for VHH B3 binding murine FAP recombinant protein, for which a fivefold serial dilution from 1000 nM to 1.6 nM was employed). First the baseline was measured for 180 s in assay buffer, followed by 5 subsequent association phases of 180 s with the VHH preparations in increasing order of concentration, with 75 s intermediate dissociation phases in assay buffer in between, and a final dissociation phase in assay buffer of 30 min. In every assay a reference sensor loaded with FAP recombinant protein was included that was incubated in assay buffer during the association phases.
Binding curves were exported and analyzed using the BIAevaluation analysis software (GE Healthcare). First the y-axes of the different curves were aligned to the median of the last 5 s of the baseline measurement. Subsequently, the sensorgram of the reference sensor was subtracted from all other sensorgrams. The resulting binding curve was fitted using a general fit with the ‘kinetic titration with drift’ binding model (1:1 (antigen:analyte) model; Karlsson, R. et al (2006), Analyzing a kinetic titration series using affinity biosensors. Analytical Biochemistry 349: 136-147), with Rmax fitted global, RI local and drift set to 0.
Table 7 gives an overview of the kinetic parameters of antigen binding for His₆-tagged VHHs B1, B2, B3 and B4 (SEQ ID NO: 21-24), as determined by bio-layer interferometry with biotinylated human or murine FAP recombinant protein that was loaded on the sensor.

[2] = biological target: T2, murine FAP recombinant protein (murine, UniProt P97321 26-761); experiment: bio-layer interferometry (Octet RED96), biotinylated murine FAP on streptavidin sensor
T2 construct: The protein was biotinylated for bio-layer interferometry; also called extracellular domain of murine FAP with N-terminal His6-tag
T2 sequence: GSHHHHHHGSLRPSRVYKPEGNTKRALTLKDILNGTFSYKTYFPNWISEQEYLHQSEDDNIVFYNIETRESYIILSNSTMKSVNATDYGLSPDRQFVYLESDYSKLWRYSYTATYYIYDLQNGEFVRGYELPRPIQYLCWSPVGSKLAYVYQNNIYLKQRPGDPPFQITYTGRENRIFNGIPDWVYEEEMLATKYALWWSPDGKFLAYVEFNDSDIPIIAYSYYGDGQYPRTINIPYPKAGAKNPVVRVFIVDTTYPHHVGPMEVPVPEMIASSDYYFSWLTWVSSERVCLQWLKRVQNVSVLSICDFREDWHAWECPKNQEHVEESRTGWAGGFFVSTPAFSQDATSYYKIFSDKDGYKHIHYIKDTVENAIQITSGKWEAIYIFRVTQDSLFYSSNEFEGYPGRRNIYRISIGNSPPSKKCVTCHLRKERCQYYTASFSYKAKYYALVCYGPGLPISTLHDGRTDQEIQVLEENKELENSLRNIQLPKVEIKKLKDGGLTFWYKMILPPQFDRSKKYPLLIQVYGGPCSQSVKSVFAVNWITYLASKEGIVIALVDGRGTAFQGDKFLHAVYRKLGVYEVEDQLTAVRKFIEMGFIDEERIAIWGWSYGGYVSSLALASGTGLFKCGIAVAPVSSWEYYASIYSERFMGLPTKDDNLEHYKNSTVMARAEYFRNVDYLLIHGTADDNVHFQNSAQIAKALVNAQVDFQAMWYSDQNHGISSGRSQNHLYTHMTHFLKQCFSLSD
Protocol: as §1
Binding curves were exported and analyzed using the BIAevaluation analysis software (GE Healthcare). First the y-axes of the different curves were aligned to the median of the last 5 s of the baseline measurement. […]

[3] = biological target: T2, murine FAP recombinant protein; experiment: ELISA, coated murine FAP recombinant protein, HA-His6-tagged VHH extract, anti-HA detection
Protocol: The day before measurement, 0.1 μg recombinant protein at a concentration of 1 μg/mL in 100 mM NaHCO₃, pH 8.2 was coated in a 96-well ELISA plate (Nunc MaxiSorp). Per VHH clone also a blank coated well was foreseen (only buffer). The wells were overcoated with protein-free T20 (PBS) blocking buffer (Pierce). After washing with PBS, pH7.4, 0.05% Tween, VHH-containing bacterial freeze-thaw extract was added to every well. Binding of HA-His₆-tagged VHHs was detected by using mouse anti-HA.11 epitope tag (clone 16B12, Biolegend) as the primary Ab and goat anti-mouse IgG (whole molecule) alkaline phosphatase conjugate (Sigma-Aldrich) as the secondary Ab, with thorough washing with PBS, pH 7.4, 0.05% Tween in between. Signals were developed using phosphatase substrate (Sigma-Aldrich) in AP blot buffer (100 mM NaCl, 50 mM MgCl₂, 100 mM Tris, pH 9.5). The absorbance was determined at 405 nm using an absorbance microplate reader (Molecular Devices). Per clone the ratio was determined between the absorbance in the antigen-coated well versus the well without antigen.

[4] = biological target: T3, human FAP expressed on cells (human, UniProt Q12884 1-760); experiment: flow cytometry on human FAP-expressing GM05389 cells, VHH-containing bacterial extract, anti-HA and PE-conjugated secondary detection, Δmfi against cells without VHH
T3 construct: also called human FAP cell surface protein; human FAP receptor
T3 sequence: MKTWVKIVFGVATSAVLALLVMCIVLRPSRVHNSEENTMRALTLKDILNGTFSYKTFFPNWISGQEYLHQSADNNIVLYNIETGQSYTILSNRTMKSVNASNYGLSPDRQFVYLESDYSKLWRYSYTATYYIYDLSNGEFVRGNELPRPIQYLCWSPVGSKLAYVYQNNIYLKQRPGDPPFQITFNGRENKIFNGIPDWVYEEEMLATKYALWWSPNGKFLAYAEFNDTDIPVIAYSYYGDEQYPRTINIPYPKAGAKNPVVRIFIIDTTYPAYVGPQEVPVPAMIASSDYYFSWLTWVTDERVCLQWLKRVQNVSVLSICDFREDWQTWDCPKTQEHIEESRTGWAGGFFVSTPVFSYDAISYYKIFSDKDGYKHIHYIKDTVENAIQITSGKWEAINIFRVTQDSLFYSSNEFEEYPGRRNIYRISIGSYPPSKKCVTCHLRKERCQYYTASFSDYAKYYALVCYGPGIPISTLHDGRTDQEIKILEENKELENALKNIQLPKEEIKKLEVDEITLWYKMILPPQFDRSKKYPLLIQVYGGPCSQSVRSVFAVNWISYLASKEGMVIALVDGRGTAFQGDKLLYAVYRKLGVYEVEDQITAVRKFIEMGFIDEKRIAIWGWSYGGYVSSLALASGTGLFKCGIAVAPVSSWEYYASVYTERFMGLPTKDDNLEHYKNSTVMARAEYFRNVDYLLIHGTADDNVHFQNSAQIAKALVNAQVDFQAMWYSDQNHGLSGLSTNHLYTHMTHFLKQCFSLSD
Protocol: The cell binding was tested by flow cytometry experiments. Per test condition 1×10⁵ to 2×10⁵ cells, washed in PBS, 0.5% BSA, were pelleted in the well of a 96-well U-bottom plate. The cell pellets were resuspended and incubated with the VHH-containing bacterial freeze-thaw extracts (diluted in PBS, 0.5% BSA). Binding of HA-His₆-tagged VHHs was detected by using mouse anti-HA.11 epitope tag (clone 16B12, Biolegend) as the primary detection antibody and PE-conjugated rat anti-mouse IgG1 (clone A85-1, BD Pharmingen) as the secondary detection antibody, with washing with PBS, 0.5% BSA in between, and finally resuspended in PBS, 0.5% BSA.
Flow cytometry was performed on a FACS Canto II (BD Biosciences). Data were analyzed using FlowJo software. Based on the forward scatter-side scatter plot a single cell gate was drawn. The median fluorescence intensity was determined on a histogram for the phycoerythrin signal of the single cells. The difference in median fluorescence intensity (A mfi) was calculated relative to a test condition without incubation of VHHs (cells+primary Ab+secondary Ab), and are shown in FIG. 3.

[5] = biological target: T1, human FAP recombinant protein; experiment: ELISA on coated recombinant protein, VHH-containing bacterial extract, anti-HA detection, signal-to-background ratio
Outline: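 Recombinant protein coated overnight (0.1 μg, 1 μg/mL in NaHCO₃ pH 8.2), blocked, then probed with VHH-containing bacterial freeze-thaw extract. HA-tagged VHH detected via anti-HA and AP-conjugated secondary antibody, absorbance at 405 nm; value is ratio of antigen-coated to uncoated-well signal per clone.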

[6] = biological target: T3, human FAP expressed on cells; experiment: saturation binding of 111In-DOTA-labelled untagged VHH B1 on human FAP-expressing GM05389 cells
Protocol: Secondly, untagged human/murine FAP-crossreactive VHH B1 was radiolabeled with ¹¹¹In, after which its in vitro and in vivo diagnostic potential was evaluated. The binding potential of the resulting radio-conjugate was assessed to confirm that this was not affected by the conjugation of ¹¹¹In-DOTA to the amino acid sequence of the VHH. To this, human FAP-expressing GM05389 cells were incubated with serial dilutions with concentrations ranging from 0 to 33 nM of the ¹¹¹In-labelled VHHs. A 100-fold excess of the corresponding unlabeled VHH was added in parallel to saturate the human FAP receptors expressed on cancer cells, to assess non-specific binding.

[7] = biological target: T3, human FAP expressed on cells; experiment: saturation binding of 177Lu-DTPA-labelled untagged VHH B1 on human FAP-expressing GM05389 cells
Protocol: (§2) In a first part, its in vitro behaviour was assessed by means of investigating its cellular binding and retention overtime. The binding potential of the resulting radioconjugates was assessed to confirm that this was not affected by the introduction of ¹⁷⁷Lu-DTPA into the amino acid sequence of the VHH. To this, human FAP-expressing GM05389 and HEK-293 cells were incubated with serial dilutions with concentrations ranging from 0 to 33 nM of ¹⁷⁷Lu-labeled untagged VHH B1. A 100-fold excess of the corresponding unlabeled VHH was added in parallel to saturate the human FAP receptors expressed on cancer cells, to assess non-specific binding.

[8] = biological target: T3, human FAP expressed on cells; experiment: saturation binding of 177Lu-DTPA-labelled untagged VHH B1 on human FAP-expressing HEK-293 cells
Protocol: as §2

[9] = biological target: T3, human FAP expressed on cells; experiment: saturation binding of 225Ac-DOTA-labelled untagged VHH B1 on human FAP-expressing GM05389 cells

B3: 111In-labeled untagged VHH B1 (VHH)
VHH: DVQLVESGGGLVQPGGSLRLSCVASGRLSSSNSMAWYRQVPGKRRELVAGITGGGETNYADFVGGRFTISRDNAKNGLYLQLNGLKPEDTAAYYCNFWPPLINYWGQGTQVTVSS
modifications: 111In-DOTA (p-SCN-Bn-DOTA) conjugated to lysine side-chain amines
EC50 [6]: 0.6 nM

B4: 177Lu-labeled untagged VHH B1 (VHH)
VHH: DVQLVESGGGLVQPGGSLRLSCVASGRLSSSNSMAWYRQVPGKRRELVAGITGGGETNYADFVGGRFTISRDNAKNGLYLQLNGLKPEDTAAYYCNFWPPLINYWGQGTQVTVSS
modifications: 177Lu-DTPA (p-SCN-Bn-CHX-A''-DTPA) conjugated to lysine side-chain amines
notes: also called 177Lu-B1; 177Lu-DTPA-VHH
EC50 [7]: 0.5 nM
EC50 [8]: 0.8 nM

Now from value to binder:

Kd [1]: 0.16 nM
koff [1]: 5.4e-05 s⁻¹
kon [1]: 340000 M⁻¹ s⁻¹
binding result [2]: no binding
B1: His6-tagged VHH B3 (VHH)
VHH: DVQLVESGGGLVQAGGSLRLSCAVSGRLFSTNAMGWYRQAPGKQRELVAGITGGDRSNYADSVKGRFTISRDNGKNTLYLQMNSLKPEDTAVYYCNFYPPIVGDYWGQGTQVTVSS
notes: Purified, unlabelled; used in bio-layer interferometry; also called B3 with His6-tag

signal-to-background ratio [3]: > 30
binding result [4]: no binding
binding result [5]: no binding
B2: HA-His6-tagged VHH B4 (VHH)
VHH: QVQLQESGGGLVQVGGSLRLSCVASGFTFSSYYMSWVRQAPGKGLEWVASIYADGDMTYYADSVRGRFTISRDNAKNTLYLQMNSLKSEDTAVYYCAKDPLPPYHVNQGTQVTVSS
notes: also called B4 with HA-His6-tag

EC50 [9]: 0.4 nM
B5: 225Ac-labeled untagged VHH B1 (VHH)
VHH: DVQLVESGGGLVQPGGSLRLSCVASGRLSSSNSMAWYRQVPGKRRELVAGITGGGETNYADFVGGRFTISRDNAKNGLYLQLNGLKPEDTAAYYCNFWPPLINYWGQGTQVTVSS
modifications: 225Ac-DOTA (p-SCN-Bn-DOTA) conjugated to lysine side-chain amines
notes: also called 225Ac-DOTA-VHH
